We go through three substances from publication PMC4911930.

Where only a bound is given, the exact number is not on record here.

Assay [1] has as its target Spt16 (human (endogenous in HeLa and U2OS)) (UniProt Q9Y5B9).
The target of a further assay is Spt16 956–960A (human) (UniProt Q9Y5B9). The assay can be described thus: pull-down; GST-tagged Spt16 fragments and alanine mutants as bait, CENP-T^HFD/-W as prey, GST alone as control; Coomassie gel; also with 1 M NaCl for 926–1047 (Supplemental Fig. S5a).
Another assay concerns the target Spt16 952–955A (human) (UniProt Q9Y5B9). The description is as above.
Another assay addresses CENP-T^HFD/-W complex (UniProt Q5EE01). The assay can be described thus: ITC; Spt16-CTD (amino acids 926–965; 2.2 mM) injected into 200 µL of 150 µM CENP-T/-W, human H2A/H2B or CENP S/X; 20°C; 20 mM Tris pH 7.5, 0.2 M NaCl; single-site model for CENP-T/-W, two-site model for H2A/H2B. In general terms: In ITC the heat of successive injections is recorded.

CENP-T, sequence (Q96BT3 whole entry): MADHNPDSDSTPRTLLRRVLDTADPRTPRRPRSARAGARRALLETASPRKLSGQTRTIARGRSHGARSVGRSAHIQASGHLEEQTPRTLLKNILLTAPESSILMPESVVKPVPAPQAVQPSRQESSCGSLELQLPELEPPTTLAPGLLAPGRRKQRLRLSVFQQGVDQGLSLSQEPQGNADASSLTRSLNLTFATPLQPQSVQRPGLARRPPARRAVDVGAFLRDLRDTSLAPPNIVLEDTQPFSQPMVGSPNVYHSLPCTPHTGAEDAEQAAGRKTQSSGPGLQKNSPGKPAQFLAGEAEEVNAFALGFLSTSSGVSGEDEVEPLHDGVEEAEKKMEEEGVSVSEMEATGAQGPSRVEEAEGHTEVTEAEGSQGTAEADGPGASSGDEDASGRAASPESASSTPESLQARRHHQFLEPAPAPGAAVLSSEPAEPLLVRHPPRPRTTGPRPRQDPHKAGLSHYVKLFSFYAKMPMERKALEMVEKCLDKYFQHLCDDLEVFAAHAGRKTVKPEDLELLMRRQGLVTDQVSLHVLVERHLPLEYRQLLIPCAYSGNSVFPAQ

As for “CENP-T (from UniProt Q96BT3 1-561) (natural protein)”, in assay [1], the accumulation of endogenous CENP-T at the LacO locus in cells transfected with eGFP-LacI-Spt16 (immunofluorescence after 24 h) was 10 % of cells.
Regarding “CENP-T^HFD/-W complex (from UniProt Q5EE01 1-88)”, the percent reduction of binding against unmutated Spt16 926–965 in the assay with Spt16 956–960A (human) was < 60%; with Spt16 952–955A (human), < 40%.
What is called Kd is the free concentration of one partner at which half of the binding sites on the other are occupied at equilibrium, for simple one-to-one binding. A higher Kd goes with lower affinity. With “Spt16-CTD (Spt16 amino acids 926–965) (from UniProt Q9Y5B9 926-965) (domain or fragment)”, the Kd with CENP-T^HFD/-W complex worked out at 6.3 µM.
